Assay results as given in article doi:10.1101/2024.07.08.602401 (bioRxiv, 2024).
Where a chain is given by its changes, count along the chain named.

B1: 3H4v31 IgG1 (antibody, V domains shown)
VH: EVQLQESGPELVKPGASVKIPCKASGYTFTDYNMDWVKQSHGKSLEWIGDINPNNGGTIYNQKFKGKATLTVDKSSSTAYMELRSLTSEDTAVYYCARPDSAQYRWNWYFDVWGTGTTVTVSS
VL: DIVITQSPSSMYASLGERVTITCKASQDINSYLSWFQQKPGKSPKTLIYRANRLVDGVPSRFSGSGSGQDYSLTISSLEYEDMGIYYCLQYDEFPLTFGAGTKLELK
B2: wildtype 3H4 IgG1 (antibody, V domains shown)
VH: B1 VH with S101Y, A102Y, Q103G, Y104S, R105S, W106Y, N107G
VL: B1 VL

Experiments:
HLA-E-VL9 complex = HLA-E-VL9 complex (Homo sapiens, HLA-E*01:03, strain); assay: BLI
[1] = target: HLA-E-… single chain trimer on transfected 293T cells (Homo sapiens HLA-E*01:03 assumed; …); assay: flow cytometry on cells
[2] = target: HLA-E-[…] single chain trimer on transfected 293T cells (Homo sapiens HLA-E*01:03 assumed; …); assay: flow cytometry on cells

Row | Binder | Kd (HLA-E-VL9 complex) | binding result [1] | binding result [2]
1 | B1 | 11.5 nM | – | –
2 | B2 | – | binds | binds
